{"source": "paper PMC10350922", "about": "“Allosteric Inhibitors of Macrophage Migration Inhibitory Factor (MIF) Interfere with Apoptosis-Inducing Factor (AIF) Co-Localization to Prevent Parthanatos”", "molecular_target": "MIF (ZP307-labeled) (human, UniProt P14174 2-115)", "assay": "competition; competes with PA20-Q1, dose-dependent; 5 mM Mg2+; 100 mM Tris, 5 mM MgCl2, 5 mM KCl, pH 8.2; 1 uM labeled MIF, 1 uM PA20-Q1; inhibitor preincubation at rt", "settings": "protein: recombinant; tags: C-terminal His-tagged and untagged both made; chain copies: 3; single strand"}
{"binder": "AAAAAAAAAAAAAAAAAAAA (ssDNA)", "note": "[PA20]", "values": [{"measurement": "binding result", "result": "binds"}]}
